# Reference: patent US8114412B2, “T. cruzi-derived neurotrophic agents and methods of use therefor” (priority 1999, dated 2012)
# “Also recorded” adds a separate entry of the source.
# B1: TS: T. cruzi trans-sialidase purified by immuno-affinity chromatography from supernatants of infected Vero cells (SEQ ID NO:2, SEQ ID NO:34) (protein, listed as Trypanosoma cruzi)
# chain: MVAIADARYETSSENSLIDTVAKYSVDDGETWETQIAIKNSRVSSVSRVVDPTVIVKGNKLYVLVGSYYSSRSYWSSHGDARDWDILLAVGEVTKSTAGGKITASIKWGSPVSLKKFFPAEMEGMHTNQFLGGAGVAIVASNGNLVYPVQVTNKRKQVFSKIFYSEDDGKTWKFGKGRSDFGCSEPVALEWEGKLIINTRVDWKRRLVYESSDMEKPWVEAVGTVSRVWGPSPKSNQPGSQTSFTAVTIEGMRVMLFTHPLNFKGRCVRDRLNLWLTDNQRIYNVGQVSIGDENSAYSSVLYKDDKLYCLHEINTDEVYSLVFARLVGELRIIKSVLRSWKNWTATCPAFAPLLIQPLRRQRVVVVPLSPRLVLLAFCRQRLPKRMGGSYRCVNASTANAERVRNGLKFAGVGGGALWPVSQQGQNQRYRFANHAFTLVASVTIHEAPRAASPLLGASLDSSGGKKLLGLSYDEKHQWQPIYGSTPVTPTGSWETGKRYHLVLTMANKIGSVYIDGELLEGSGQTVVPDGRTPDISHFYVGGYKRSDMPTISHVTVNNVLLYNRRQLNTEEIRTLFLSQDLIGTEAHMDSSSDSSAHSTPSTPADSSAHSTPSTPVDSSAHSTPSTPADSSAHGTPSTPVDSSAHGTPSTPADSSAHGTPSTPVDSSAHSTPSTPVDSSAHSTPSTPVDSSAHGAPSTPADSSAHGTPSTPVDSSAHGTPSTPADSSAHSTPSTPADSSAHSTPSTPADSSAHSTPSTPVDSSAHGTPSTPADSSAHSTPSTPADSSAHGTPSTPVDSSAHSTPSTPVDSSAHGTPSTPVDSSAHSTPSTPVDSSAHGTPSTPVDSSAHSTPSTPADSSAHSTPSTPADSSAHGTPSTPVDSSAHSTPSTPADSSAHSTPSTPVDSSAHSTPSTPADSSAHGTPSTPVDSSAHGTPSTPADSSAHSTPSTPADSSAHSTPSTPADSSAHSTPSTPVDSSAHSTPSTPADSSAHSTPSTPADSSAHSTPSTPADSSAHSTPSTPVDSSAHSTPSTPADSSAHGTPSTPADSSAHSTPSTPVDSSAHSTPSTPADSSAHGTPSTPADSSAHSTPSTPADSSAHGTPSTPADSSAHSTPSTPAGSSANGTVLILPDGAALSTFSGGGLLLCACALLLHVFFMAVF
# B2: TS-F: recombinant full catalytic domain of TS, amino acid residues 33-666, His-tagged, expressed in E. coli (protein, listed as Trypanosoma cruzi)
# chain: ETQIAIKNSRVSSVSRVVDPTVIVKGNKLYVLVGSYYSSRSYWSSHGDARDWDILLAVGEVTKSTAGGKITASIKWGSPVSLKKFFPAEMEGMHTNQFLGGAGVAIVASNGNLVYPVQVTNKRKQVFSKIFYSEDDGKTWKFGKGRSDFGCSEPVALEWEGKLIINTRVDWKRRLVYESSDMEKPWVEAVGTVSRVWGPSPKSNQPGSQTSFTAVTIEGMRVMLFTHPLNFKGRCVRDRLNLWLTDNQRIYNVGQVSIGDENSAYSSVLYKDDKLYCLHEINTDEVYSLVFARLVGELRIIKSVLRSWKNWTATCPAFAPLLIQPLRRQRVVVVPLSPRLVLLAFCRQRLPKRMGGSYRCVNASTANAERVRNGLKFAGVGGGALWPVSQQGQNQRYRFANHAFTLVASVTIHEAPRAASPLLGASLDSSGGKKLLGLSYDEKHQWQPIYGSTPVTPTGSWETGKRYHLVLTMANKIGSVYIDGELLEGSGQTVVPDGRTPDISHFYVGGYKRSDMPTISHVTVNNVLLYNRRQLNTEEIRTLFLSQDLIGTEAHMDSSSDSSAHSTPSTPADSSAHSTPSTPVDSSAHSTPSTPADSSAHGTPSTPVDSSAHGTPSTPADSSAHGTPSTPVDS
# modifications: His tag
# notes: recombinant full catalytic domain of TS, amino acid residues 33-666, His-tagged, expressed in E. coli
# Key:
# [1] = system: human bladder carcinoma T-24 cell line; assay: IL-6 secretion by T-24 carcinoma cells (ELISA); format: cell-based; settings: for IL-6 secretion by T-24 cells: 24 hours culture
# Procedure: Primary cultures of human intestinal microvascular endothelial cells (HIMEC) isolated from normal jejunal mucosa/submucosal tissue were prepared as described (Strong et al., Gastroenterology 114: 1244-1256 (1998)). The HIMEC were cultured in fibronectin-coated plasticware in MCDB medium (Sigma) supplemented with 20% FBS, 90 μg/ml heparin and 50 μg/ml endothelial cell growth factor (Sigma). T-24 cells (ATCC Accession No. HTB-4) were cultured in M199 medium supplemented with 10% FBS. PBMC were purified by Ficoll-Paque gradient as described (Current Protocols in Immunology, pp 7.1.1-7.1.2). Vero cells (ATCC Accession No. CCL-81) were grown in RPMI medium with 5% Nu serum and infected with the Silvio X-10/4 of T. cruzi as described previously (Chuenkova et al., J. Exp. Med. 181: 1693-1703, (1995)).
# Endothelial cells and T-24 cells were plated on 24-well plates at a density of 1×10^3 cells/well, while peripheral blood mononuclear cells (PBMC) were plated in the similar wells at 1×10^6/well. Triplicat cultures of cells were incubated test agents for a predetermined amount of time. […] Cytokines and chemokines released in the culture supernatants were measured by ELISA assay following the instructions of the manufacturer (Endogen). The cytokines tested were IL-1β, IL-4, IL-8, IL-10, IL-12, IFN-γ, TNF-α, and the chemokines RANTES and MCP-1. Negative controls were cells incubated in medium containing polymixin B at 10 μg/ml, and positive controls were cells incubated with bacterial LPS at the low ng/ml range (for PBMC or HIMEC) or in the μg/ml range for carcinoma T-24 cells. In some experiments, IL-1β, or TNFα were used as positive control for cytokine release.
# N18 cells = assay: Neurite outgrowth assay in N18 cells; format: cell-based; settings: immobilized proteins coated at 500 μg/ml, 17 hours (FIG. 3A)
# Procedure: FIG. 3A is a graph showing that neurite outgrowth in N18 cells is induced by immobilized laminin (Ln), immobilized TS and immobilized fragments of TS. Proteins were immobilized by incubating plates which contained wells filled with solutions of the proteins (protein concentration was 500 μg/ml) at 4° C. overnight. The protein solutions were removed and the plates were further incubated with 1% BSA at room temperature for one hour. N18 cells were cultured in the coated wells in serum-free RPMI-1640/0.2% BSA for 17 hours, and neurite outgrowth was measured by phase-contrast microscopy. […] Ln, laminin; TS, purified T. cruzi trans-sialidase; 7F, recombinant TS from clone 7F; 19Y, recombinant TS from clone 19Y; TS-F, recombinant fragment consisting of amino acid residues 33-666 of TS (SEQ ID NO:2); TS-CC-47, recombinant fragment consisting of amino acid residues 79-478 of TS (SEQ ID NO:2); TS-Cat-47, recombinant fragment consisting of amino acid residues 79-415 of TS (SEQ ID NO:2); BSA, bovine serum albumin.
# 96-well microtiter plates were coated overnight at 4° C. with the TS or peptides or fragments thereof, or with control proteins laminin (Ln) or bovine serum albumin (BSA) at 500 μg/ml. After removing the compounds, the plates were further incubated with 1% BSA for 1 hour at room temperature and immediately used as substratum for PC12 or N18 (Prasad, K. N., Biol Rev Camb Philos Soc, 66:431-451 (1991)) cells in serum-free RPMI/0.2% BSA. Neurite outgrowth was measured using a phase-contrast microscope 17 hours later.
# Akt kinase in PC12 cells = assay: Immunodetection of activated Akt (Ser 473) in PC12 cells; format: cell-based, rat; settings: for phosphorylation/activation of Akt kinase in PC12 cells: 100 ng/ml, 2, 5 or 10 minutes, phospho-Akt (Ser 473) antibody
# Procedure: PC12 cells were deprived of serum for 24-48 hours, stimulated with TS, TS-F or LTR for 2, 5 or 10 minutes and immediately lysed with 2% SDS. In studies using the PI-3 kinase inhibitor, LY294002 (LY), cells were pre-treated with the inhibitor (1 μM) for 30 min prior to the addition of TS-F or TS. The proteins in the cell lysate were separated in SDS-10% polyacrylamide gels, transferred to nitrocellulose membrane (Bio-Rad) and the phosphorylated form of protein kinase Akt was detected with phospho-Akt (Ser 473) antibody (New England BioLabs, Beverly, Mass.), followed by alkaline phosphatase-conjugated secondary antibody (Promega, Madison, Wis.). Bands corresponding to phospho-Akt (60 kDa) were quantified using a scanning densitometer (Bio-Rad).
# PC12 cells = assay: Trophic factor withdrawal-induced apoptosis of PC12 cells (DAPI/TUNEL); format: cell-based, rat; settings: for protection of PC12 cells from apoptosis induced by trophic factor withdrawal: serum-free RPMI-1640/0.2% BSA, 17 hours, DAPI or TUNEL
# In short: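 PC12 cells were washed and plated at 2×10^5/ml in serum-free RPMI/0.2% BSA on collagen, with or without test agents. Apoptosis was scored by DAPI nuclear staining (300-400 cells counted) or TUNEL. Protection was calculated as 100% − (apoptosis% with agent ÷ apoptosis% in RPMI alone)×100%; wortmannin or LY294002 was added after 24 h, with DAPI read 24 h later.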
# human Schwann cells = assay: Serum withdrawal-induced apoptosis of immortalized human Schwann cells (DAPI); format: cell-based; settings: for inhibition of serum withdrawal-induced apoptosis of human Schwann cells: serum-free DMEM, 24-72 hours, DAPI
Molecule,IL-6 secretion by T-24 cells [1],"bacterial LPS concentration inducing the same IL-6 in T-24 cells ([1]; TS 1 μg/ml, 24 hr) [µg/mL]",neurite outgrowth in N18 cells (N18 cells),phosphorylation/activation of Akt kinase in PC12 cells (Akt kinase in PC12 cells),exposure time after which Akt becomes activated (Akt kinase in PC12 cells; TS 100 ng/ml) [min],PC12 cells protected from death (PC12 cells; TS 62 pM (equivalent to 12.5 ng/ml)) [%],survival of PC12 cells grown in serum-free medium (PC12 cells; TS 2.5 ng/ml alone or with CNTF 50 ng/ml or LIF 0.5 ng/ml) [%],"PC12 cells protected from apoptotic death (PC12 cells; TS 2.5 ng/ml, NGF 0.5 ng/ml, alone or co-administered at the same concentrations) [%]",potency relative to NGF in preventing apoptosis (PC12 cells; molar basis),protection of PC12 cells from apoptosis induced by trophic factor withdrawal (PC12 cells),"duration of protection of PC12 cells by a single dose (PC12 cells; time course, TS 0.5 nM (FIG. 5B))",dose showing efficacy as trophic factor for Schwann cells (human Schwann cells) [nM],inhibition of serum withdrawal-induced apoptosis of human Schwann cells (human Schwann cells),fragmented nuclei in serum-starved Schwann cells transfected with empty vector (neo) (human Schwann cells; CD 500 ng/ml),survival of Schwann cells transfected with PTEN mutant pG129R (human Schwann cells; CD 500 ng/ml),"protection of Schwann cells from apoptosis compared with 2% serum (human Schwann cells; CD 500 ng/ml (6 nM) in serum-free DMEM, 72 hours, listed as CD)","survival of control Schwann cells transfected with GFP vector (human Schwann cells; CD 500 ng/ml, serum-free 48 hours)","survival of Schwann cells over expressing kinase-inactive Akt (AktKI) (human Schwann cells; CD 500 ng/ml, serum-free 48 hours, listed as CD)","rescue from apoptosis of Schwann cells over expressing PTEN (human Schwann cells; CD 500 ng/ml, listed as CD)",inhibition of serum withdrawal-induced apoptosis of human Schwann cells (human Schwann cells; listed as CD)
B1,stimulated IL-6 secretion,0.75,induced neurite outgrowth,becomes activated; also recorded: induces serine phosphorylation of Akt kinase,2 to 5,45,13,15,more potent on a molar basis; also recorded: at concentrations lower than those required by nerve growth factor; also recorded: more effective on a molar base,effectively protected; also recorded: inhibits trophic factor withdrawal-induced apoptosis; also recorded: protects PC12 cells from apoptosis induced by trophic factor withdrawal in a dose dependent manner; also recorded: protected PC12 cells from apoptosis,up to several days; also recorded: delayed trophic factor withdrawal-induced apoptotic death,≥ 0.5,effectively inhibited; also recorded: dose-dependent inhibition,,,,,,,
B2,did not promote IL-6 release,,induced neurite outgrowth to about the same extent as the intact enzyme,effective in activating Akt,,,,,,survival being induced,,,,decreased the number of fragmented nuclei by about ten-fold,did not detectably enhance,nearly as effective as 2% serum,did increase survival,did not increase survival; also recorded: did not promote survival,did not rescue cells from apoptotic death,protected Schwann cells against apoptosis; also recorded: protected human Schwann cells from apoptosis; also recorded: dose-dependent inhibition
